Molecular target: non-covalent complex of the soluble extracellular domain of human neonatal Fc receptor (FcRn) with C-terminal His-Avi Tag and human beta-2-microglobulin, biotinylated (human) (UniProt P55899)
Test: FcRn affinity chromatography, Fc part after IdeS cleavage and preparative SEC

retention time: 52 min
Substance: Fc part of anti-Abeta antibody (YTE mutant)

Source: US20240124519A1
